Results on one molecule are retold here after US20020164640A1 (IMMUNEX, published 2002).

The test has as its target T1, IRAK (UniProt P51617 1-712, limits assumed).
T1 construct: Overexpressed in HEK293 cells and detected by western blotting with anti-IRAK; No tag is stated; also called IL-1 receptor associated Kinase; IRAK1
The test is described as follows: co-immunoprecipitation from transfected HEK293 cells: anti-HA IP, anti-IRAK western blot. On the procedure:
HEK 293 cells were transfected with a 5 x NF-KB reporter gene plasmid and co-transfected with plasmids encoding MAL-1 of SEQ ID NO:2 or MyD88 and increasing concentrations of IRAK. Luciferase reporter gene activity was measured. HEK293 cells were transfected with HA-MAL-1 and IRAK and the resulting overexpressed proteins were immunoprecipitated using an anti-HA antibody to isolate MAL-1 complexes and interactions were detected by western blotting to detect anti-IRAK. IRAK could not be detected in the anti-HA-MAL immunoprecipitates. HEK293 cells were transfected with AU-1-MyD88 and IRAK and the resulting overexpressed proteins were immunoprecipitated using an anti-AU1 antibody to isolate MyD88 complexes and interactions were detected by western blotting for anti-IRAK. IRAK was detected in the anti-Aul-MyD88 immunoprecipitates.
For orientation: A western blot detects proteins with antibodies after separation by electrophoresis.

T1 sequence (P51617 whole entry): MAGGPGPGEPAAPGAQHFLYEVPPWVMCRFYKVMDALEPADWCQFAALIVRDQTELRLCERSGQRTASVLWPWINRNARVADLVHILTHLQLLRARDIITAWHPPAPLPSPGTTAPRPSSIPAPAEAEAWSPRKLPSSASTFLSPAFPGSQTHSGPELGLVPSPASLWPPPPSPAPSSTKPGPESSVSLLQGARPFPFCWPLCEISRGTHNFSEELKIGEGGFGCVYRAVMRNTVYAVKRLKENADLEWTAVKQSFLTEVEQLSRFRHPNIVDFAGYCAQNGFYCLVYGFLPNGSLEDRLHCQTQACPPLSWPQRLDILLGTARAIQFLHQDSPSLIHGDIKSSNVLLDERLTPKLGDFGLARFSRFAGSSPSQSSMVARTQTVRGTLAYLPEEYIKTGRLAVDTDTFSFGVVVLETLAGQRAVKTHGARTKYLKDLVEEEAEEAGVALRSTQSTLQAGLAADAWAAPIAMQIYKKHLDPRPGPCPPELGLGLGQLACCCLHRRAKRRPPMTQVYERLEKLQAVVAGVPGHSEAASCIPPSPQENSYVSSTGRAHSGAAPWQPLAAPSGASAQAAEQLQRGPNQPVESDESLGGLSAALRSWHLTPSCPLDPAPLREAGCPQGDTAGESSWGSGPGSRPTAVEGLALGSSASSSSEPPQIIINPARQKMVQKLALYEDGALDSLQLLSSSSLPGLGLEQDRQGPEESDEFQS

B1: full-length labelled MAL-1 (HA-MAL-1) (other, not shown: small tags and cut ends)
chain: MASSTSLPAPGSRPKKPLGKMADWFRQTLLKKPKKRPNSPESTSSDASQPTSQDNPLPPSLSSVTSPSLPPTHASDSGSSRWSKDYDVCVCHSEEDLVAAQDLVSYLEGSTASLRCFLQLRDATPGGAIVSELCQALSSSHCRVLLITPGFLQDPWCKYQMLQALTEAPGAEGCTIPLLSGLSRAAYPPELRFMYYVDGRGPDGGFRQVKEAVMRCKLLQEGEGERDSATVSDLL
notes: Overexpressed in HEK293 cells; also called tagged MAL-1
For the molecule B1, the binding result was “no binding”.
